assay: yeast display, Sf9 membrane polyspecificity reagent, FACS + sequencing; frameworks hold sequencing errors
Summary of the method: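 Using colony PCR, genes from sorted yeast display clones were amplified, then sequenced on MiSeq at 2 × 250 and filtered by CDR length. The clones had been stained with 10% biotinylated, detergent-solubilized Sf9 membrane reagent for 1 hour at 4 °C and sorted by FACS into low and high (top ~1%) gates on anti-HA and streptavidin fluorescence. Polyreactivity labels come from the gate of origin.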

Sequence | polyreactivity (PSR sort gate)
QDQLVDSGGGIVQAGGILSYSCDPSGSNVRYNAMGWYRQAPGKERELVAGIRGSGGITYYADSVKGRFTISRDNAKNTVYLQMNSLKPEDSAVYYCAADVVVCSYQEDHSWGQGTQVTESS | low polyreactivity
QDQLVDSGGGLLQAGGSLRLSCAASGSMLSTYAMGWYRQATGKERELVASISSIAGSTYYADSVKGRFTISRDNAMNTVYLQLNILKPEDNAVYYCNKVYGGGSYDYWGQGTQVTVSS | low polyreactivity
QDQLVDSGGGLVQAGASLRISSATSGRILWEYAMGSYRQAPGKERQLVAAITISDGSTYYADSVKGRFTISRDNAKNTVYLQMNSLNPEDTEVYYCAADSYDYTPAYLFSYKYYYWGQGTQVTVSS | low polyreactivity
QDQLVDSGGGLVQAGGRLRLSCAASGLTLGSYAMGWSRQAPGQVRELVAAITRGGRSNYADSVKGRFSISRDNAKNTVYLQMYSLKPEDTAVYYCYADGPGYAAKYYWIYDYWGQGTQVTVSS | low polyreactivity
QDQLVDSGGGLVQAGGSLRLSCAASGFTLAYNTMGWYRQAPGKERELVASITSSGSSTYYADSEKGRFTITRDNGKYNVYLEMNSLKPEDTAVYYFNKVRPRKFWDYYYWGQGTQVTVSS | high polyreactivity
QDQLVDSGGGLVQAGGSLRLSCAASGSTFDANAMGWYRQAPGKERELVATISDGGSTNYADSVKGRFTISRDNAKNTVYLQMNSLKPEDTAVYYCAAVKLFLGLGYVYWGQGTQVTVSS | low polyreactivity
QDQLVDSGGGLVQAGGSLSLSCAASGRNFGLNAKGWYRQAPGKEREFVAAIDWNDASTFYADSVKGRFTISRDNAENTVYLQMNSLKPVETAVYYCAAPWWVTTGTKFDYWGQGTQVTVSS | high polyreactivity
QDQLVDSGGGLVQAGGSLSLSCAASGSILRTYAMGWYRQAPGKERELVAAISYRGVSTYYADSVKGRFTISRDNAKNTVYLQMNSLKPEDTAVYYCAADQLSDEYDYWGQGTQVTVSS | high polyreactivity
QDQLVDTVGGLVQAGGSLRLSCAASGRTFWFYAMGWYRQAPGKESELVASITTGGGTNYADSVKGRFTISRDNAKITVYLQMNSLKPEDTAVYYCAVKRYHFGSGVDWYGGSSYGYWGQGTQVTVSS | high polyreactivity
QDQLVEAGGGLVQAGGSLRLSCAASRRTFWKYARGWYIQAPGKERELVAAISSSGGNTYYADSVKGRFTISRDNAKNTVYLQMNRLKPEDTAVYYCAAPLPRGAYFYWGQGTQVTVSS | high polyreactivity
QDQLVESGGCLVQAGGSLRLSCASSGSTFGDYAMGWYRQAPGKERELVAAISVSGASTYYADSVKGRFTISRDNAKNTVYLQMNSLKPEDTAVYYCAASYDTIGDSWGQGTQVSVSS | low polyreactivity
QDQLVESGGGIVQAGGSLRLSCAASGSTFYENAMGWYRQAPGKERELVAAITWSGGRTYYADSVKGRFTISRDNAKNTVYLQMNSLKPEDTAVYYCAALYGVSEEDDYWGQGTQVTVSS | high polyreactivity
QDQLVESGGGKVQAGGSLRLRCAASGRIFQYYTMVWSRQAPGKERELVAGITRGDRTYADSVKGRFTISRDNAKNTVYLQMNSLKQEDTAVYYCNADVYPYTLALPAGMGYWGQGTQVTVSS | high polyreactivity
QDQLVESGGGLDQAGGRLRLSCAASGFTFGRNAMGWYRPAPGKERELDAASSWSGGSTYYADSVKGRFTISRDYAKNTVYVQMNSLKPEDTAVYYCNKRSRLGRGNRDYWGQGTQVTVSS | high polyreactivity
QDQLVESGGGLDQAGRSLRLSCAASGFTYRPYAMGWYRQEPGKERELVAAISSIGSTYYADSVKGRFTISRDNAKYTVYLPMNSLNPEDTAVYYCIADSYVRSTIFDHWGQGTQVTVSS | low polyreactivity
QDQLVESGGGLFQAGGSLRLSCAASGRTFYTYAMGRYRPAPRKERELVAAITSGDGTYYADSVKGRFTISRDNAKNTVYLQMNSLKPEDTAVYYCADTRTYQLYRWAPRYYYWGQGTQVTVSS | high polyreactivity
QDQLVESGGGLLQAGGILRLRCAASGSILNYYAMGWYIQAPGKERELVAAISSSDGRTYYAYSEKGRFTISRDNAKNTVYLQMNSLKPEDSAVYYCAAEGTYSYSSWYEYWGQGTQVTLSS | high polyreactivity
QDQLVESGGGLLQAGGTLRLSCAASGPTFRAKAMGWNRQSPGKERELVAAITWDGGSRYYADSVKGRFTISRDYAKNTVYLQMNSLKPEYTAVYYCNTYPYLWGQGTLVTVSS | low polyreactivity
QDQLVESGGGLVHAGGSLRLSCAASGSTFDRYALGWYRQAPVKERELVATITRSGSTNYADSVKGRFTISRDNAKNTVYLQMNSLKTEDTAVYYCAAYDRITRYDYWGQGTQVTVSS | high polyreactivity
QDQLVESGGGLVQAGASLRLSCPASGFLFESNAMGWYRQAPGKERELVAAITKRGGSTYYADSVKGRFTISRDNAKNTVYLQMKSLKPEDTAVYYCARYSSRYSSGYDYWGQGTQVTVSS | high polyreactivity
QDQLVESGGGLVQAGCSLRLSCAASGRTFKDYAMGWYRQAPGKERELVAAITYRDRTYYADSVKGRFTISRDNAKNTVYLQMNSLNTEDTAVYYCNAEGFSGMDYWGKGTQVTVSS | low polyreactivity
QDQLVESGGGLVQAGGNLRLSCAASGRIYRYYAMGWYRQAPGKERELVATITLNTVSTYYADSVKGRFTISRDNAKNTVYVQKNSRTPEDTAVYYCAAGAVRFGAGYSRYWEDDYWGQGTQVTVSS | high polyreactivity

Sequence | polyreactivity (PSR sort gate)
QDQLVESGGGLVQAGGRLRLSCAASGSTFLRYAMGWYRQAPGKERELVAAINLSGDRTYYADSVKGRFTISRDKAKNTFYLQMHSLKPEDTAVYYCAARWWGPSYDAYDYWGQGTQVTVSS | low polyreactivity
QDQLVESGGGLVQAGGRLRLSCAASGSTVGVYAMGWYRQAPGKERELVAAISYTGGSSYYADSVKGRFTISRDNAKNTVYLQMNSLKPEDTAVYYCAVEVGYTDSPYSYDYWGQGTQVTVSS | low polyreactivity
QDQLVESGGGLVQAGGRLRLTCAASGNTFSGNAMGWYRQAPGKERELVAAISGSGASTYYADSVKGRFTISRDNAKNTVYLQMNSLKPEDTAVYYCDADKPGIFSRFDYWGQGTQVTVSS | low polyreactivity
QDQLVESGGGLVQAGGRRRLSCAASGSIFGGYSMGWYRQAPGKERELVAAISRRGGNTYYADSVKGRFTISGDNAKNTVYLQMNSLKPDDTAVYYCAVRWPSARIPVKLDYWVQGTQVTVSS | high polyreactivity
QDQLVESGGGLVQAGGSLLLSCAASGLTVGRYAMGWYRQAPGKERELVAVINGSGGNTYYADSVKGRFTISRDHATNTVYLQMHSLKPEDTAVYYCNVDDWGQGTQVTVSS | low polyreactivity
QDQLVESGGGLVQAGGSLRISCAASGSTFFGYAMGWYRQAPGKERELVATISSGDSTNYADSVKGRFTFSRDNAKNTVYLQMNSLKPEDTAVFYCAAQGGDGVLALYYYWGQGTQVTVSS | low polyreactivity
QDQLVESGGGLVQAGGSLRLICAASGLTFKVYAMGWYRQAPGKERELVAAISWSGGSTYYADSVKGRFTISRDNAKNTVYLQMNSLKPEDTAVYYCAVEASYYVVFFPYEYWGQGTQVTVSS | low polyreactivity
QDQLVESGGGLVQAGGSLRLICAASGRIFNVYAMGWYRQAPGKERELVAAISWRGGNTYYADSVKGRFTISRDNAKNTVYLQMNSLKPEDTAVYYCAAVYRGYDYWGQGTQVTVSS | high polyreactivity
QDQLVESGGGLVQAGGSLRLICAASGSTFVQYVMGWYRPAPGKERELVAAITRSCGSTYYADSVKGRFTISRDNAKNTVYLQMNSMKPEDSAVYYCAAYALRIQYDYWGQGTQVTVSS | high polyreactivity
QDQLVESGGGLVQAGGSLRLRCAASGRTFYMYAMGWYRQAPGKERELDAVISPSGGPTYYADSVKGRFTISRDNAKNPGSLQMNSMKPEDTAVFYCATDYAYSPYRYWTRYDYWGLGTQVTVSS | high polyreactivity
QDQLVESGGGLVQAGGSLRLRCAASRFYTMGWYRQAPGKERELVAAISWSGGDTYYADSVKGRFTISRDNAKNTVYLQMNSLKPEDTAVYYCAKKTIGSYVHEPYYYWGQGTQVTVSS | low polyreactivity
QDQLVESGGGLVQAGGSLRLSCAASGFIFGLYAMGWYRQAPGKERELVAAISSGGSTYYADSVKGRFTISRDNAKNTVYLQMNSLKPEDTAVYYCAAYYVYSEYDYWGQGTQVTVSS | high polyreactivity
QDQLVESGGGLVQAGGSLRLSCAASGFIFKYYAMGWYRQAPGKVRELVAVISISGGSTYYADSVKGRLTISRDNAKNTVYLQMNSLKPEDTAVYYCNVYWRRTSTLAFDYCGQGTQVTVSS | high polyreactivity
QDQLVESGGGLVQAGGSLRLSCAASGFIFRWYAMGWYRQAPGKERELVAAISRSGDSTYYADSVKGRFTISRDNAKNTVYLQMNSLIPEDTAVYYCAADDRYYTYGYDYWGQGTQVTVSS | low polyreactivity
QDQLVESGGGLVQAGGSLRLSCAASGFIFYYNAMAWYRHAPGKERELVAAISYVGGSTYYADSVKGRFTISRDNAKNTVYLQLNSLKPEDTAFYYCAARVYWWIASLAGNYWGQGTQVSVSS | low polyreactivity
QDQLVESGGGLVQAGGSLRLSCAASGFIIIGNAMGWYRQAPGKERELVAAISRRGGSTYYADSVKGRFTISRDHAKNTVYLQMNSLKPEDTALYYCNALTRRQKGGEGGGYWGQGTQVTVSS | high polyreactivity
QDQLVESGGGLVQAGGSLRLSCAASGFIIQCNAMGWYRQAPGKERELVAAISSSVSTYYADSVKGRFTISRDNAKNTVYLQMNSLKPEDTAVYYCNAGFPLSLWLGDYWGQGTQVTVSS | low polyreactivity
QDQLVESGGGLVQAGGSLRLSCAASGFISRKNAMGWSRQAPGKERELVATITKSGDTTYYADSVKGRFTISRDNAKNTVYLQMNSLKPEDTAVYYCAAPLYYIGSWDYYVRYIYDYWGQGTQVTVSS | low polyreactivity
QDQLVESGGGLVQAGGSLRLSCAASGFNFDRYAMGWYRQAPGKERELVAAISRRGGSTYYADSVKGRFTISRDNAKNTVYLQMNSQKPEDTAVYYCAASRPSPRPRYGYWGQGTQVTVSS | high polyreactivity
QDQLVESGGGLVQAGGSLRLSCAASGFNFDSYAMRWYIQAPGKERELVAAMSWSGSSTYSADSVKGRFTISRDNAKNTGYLQMNSLKPEDTAVYYCAALVYPYWGGSMYYWGQGTQVTVSS | high polyreactivity
QDQLVESGGGLVQAGGSLRLSCAASGFNFSPNAMGWYRQAPGKERELVAAIDWSGDRTYYADSVKGRFTISRDNAKNTVYLEMNSLKPEDTSVYYCNVVRRSTGEYSFYYWGQGTQVTVSS | low polyreactivity

From the nanobody polyreactivity screen of Harvey et al. (2022)
